Experiments:
[1] = target: T1, FRET peptide MCA-ATDHGSES-Lys DNP (no RA motif)
T1 chain: ATDHGSES

[2] = target: T2, OPA1 FRET substrate MCA-AFRATDHG-DNP
T2 chain: AFRATDHG

B1: Metalloendopeptidase OMA1 (OMA1), endogenous enzyme in normal rat kidney (NRK-52E) cell lysate (protein)
chain: AAPVPLLMLILKPVQKLLAIIVGRGIRKWWQALPPDKKALFKDSVKRNKWRLLLGLSAFGLLFVVFYFTHLEVSPVTGRSKLLLVGKEHFRLLSDLEYEVWMEEFKNDLLPEEDPRYLTVKKVVYHLTQCNQDVPGVSEINWVVHVVHSPKVNAFVLPNGQVFVFTGLLNSVTDMHQLSFLLGHEIAHAVLGHAAEKASLVHLLDFLGMIFLTMIWAICPRDSLAVLGQWIQSKLQEYMFDRPYSRTLEAEADKIGLQLAAKACVDVRASSVFWQQMEFSESLHGYPKLPEWLSTHPSHGNRAEYLDRLIPQALKLREVCNCPPLSGPDPRLLFRLTVKHLLEDSEKEDLNITVKKQKPDALPIQKQEQIPLTYALGKRTAG
OMA1 Activity (average slope over 30 min compared to AFRATDHG substrate) [1]: 2.71% | OMA1 Activity (average slope over 30 min compared to AFRATDHG substrate) [2]: 100%

— patent publication US20190049430
